Experimental data from the supplement of paper PMC9170038.

What follows are sequences tested on MS2 coat protein (assay: apparent KD of MS2 coat protein; higher = weaker reporter binding). Conditions: Eterna round: R107; input ligand: arginine 13.2 mM.
How it was run: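 Apparent KD was obtained for each design as the median of normalised binding-curve fits over its clusters. RNA switches transcribed on-chip from Illumina sequencing clusters were titrated with SNAP-549-labelled MS2 coat protein (twofold steps, 0.7 or 1.5 nM to 3 µM) in 100 mM Tris-HCl pH 7.5, 80 mM KCl, 4 mM MgCl2, without or with constant ligand.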

| Sequence | apparent KD of MS2 coat protein |
| --- | --- |
| GGGAGAUGAAUAGAAUGAGAUGACACAGAAGGAGCGUGAAUUAACACAGGUAGGUCGCUGACAACAUGAGGAUCACCCAUGUAUU [Same State Arginine A GF3] | 18.1 nM |
| AGUAGACACGCGGCCGCCACUUGAGGAUCACCCAGGUGGUGUGUACUUGAAAACAAGUGCACAUCAAGGACCGGGCGUGUCUACA [Omei Tryp B SS D v2] | 12.9 nM |
| CGCAACCAACAUGAGGAUCACCCAUGUGAAGGAGCGCCGAAGAAGGCAGGUAGGUCGCACAUGAAUAAAUCAUGUAAAAGGUUGC [MAT - Exclusion Arginine A - Mod of Eli - D19] | 17.7 nM |
| AUAUAUACAUGAGGAUCACCCAUGUUAUUACGAGGACCGGUACGGCCGCCACUCGAUAGAGUAGAAGUAAAUUUUAAUUCAUGUA [JR_SSTryptoA_Sub007] | 14.6 nM |
| UGUAUGUGAUUUGAUACCAGACCAGCUGGUGGUGCAUGAGGAUCACCCAUGCAGGUUUGGGUCCCUUGGCAGCAAAUCGCAUACU [SS Theo B #24 Ms17] | 72.5 nM |
| AGCGGAACGGAAGGGUCCCAAAAUUGUGAUACCAGCCUUGAAUCCGGCCCUUGGCAGCACAUGAGGAUCACCCAUGUACUGCGAU [Laanor] | 11.2 nM |
| GUACAUGAGGAUCACCCAUGUGGUAGGGAUACCAGCCAGAAGAAAGGCCCUUGGCAGCUUGUAUUUAGUGUGGGUUUGUUUGUUC [Exclusion - Theophylline A] | 29 nM |
| GCAACAUGAGGAUCACCCAUGUUUACUGAAGGAGCGAGACAGAACUCAGGUAGGUCGCAGACGGCGGAAUCGCCGACGACAUGGG [Exclusion Arginine A GF24] | 19.6 nM |
| AGAUUCGACACGGCCGCCACUCGUGACGGAUUUCCGAGUGUCGAACAUGAGGAUCACCCAUGUCCGAGGACCGGGUGUUGAGUCU [XTryp B #12] | 33.7 nM |
| ACAUGAGGAUCACCCAUGUUCCUCGCCGAUACCAGUGAAGAAGAACGCCCUUGGCAGCGGAAAGAAUAUUUUGGAGAUGAGGUAU [6.W] | 120 nM |
| CAGGUUAGGGCGGCCGCCACUGUGGCUACGGUACAUGAGGAUCACCCAUGUUUGUGGUUGAUCUACAGGACCGGGCCCUGACACG [Matidier] | 48.9 nM |
| UGUAUGUGAUUUGAUACCAGACCAGCUGGUGUUACAAGAGGAUCACCCUUGUAGGUUUGGGUCCCUUGGCAGCAAAUCGCAUACU [SS Theo B #24 Ms4] | 94.2 nM |
| UGUAACAUGAGGAUCACCCAUGUGAGUGAUACCAGAUUAGUAGUAGUCCCUUGGCAGCACAUUGGGCGAGUGUAUAGUCUAUGCG [Same State - Theophylline A (Freestyle 11)] | 94.6 nM |
| GCAAUACAUGAGGAUCACCCAUGUGCAGAUACCAGAGGUGCGUGCCUCCCUUGGCAGCUGCGACGCUCUGGAAGCUUGUGUGUCU [Exclusion Theophylline A GF27] | 18.4 nM |
| UUAAUCAAUAUAGAAAACUAUAUUGCAGAAGGAGCGUGAUAAAACACAGGUAGGUCGCUGAAGGGAACAUGAGGAUCACCCAUGU [AstrosSSArgA#5] | 24.8 nM |
| ACGAACGCACCUGAGGAACACCCAGGUGAUACCAGCCUGGAAACAGGCCCUUGGCAGCACCUAAAAUAAAGGUAACGUUCGAAUA [TheoAX8 #MicroSwitchBubble #AlternativeMS2] | 171 nM |
| ACAUGAGGAUCACCCAUGUAUGAUGUUCCUCGAGGACCGGUACGGCCGCCACUCGAACGAGUGGCGCGCGCGCGCGCGCGCGCGC [aUa] | 54.8 nM |
| AAUACAGCUACGGCCGCCACUUUAACUUGGUAUGGGUCCUUCACAAACAUGAGGAUCACCCAUGUAAGGACCGGGUAGCCUUGUU [theeternabot_exclusion_MS2_Trp_B_35] | 21.6 nM |
| AAGUGGCACGGAAGGAGCGAGUUUACCUAGAUAACAUGAGGAUCACCCAUGUAUAAUGGGACUCAGGUAGGUCGCCGCUGUCACU [#30 Same State - Arginine B] | 34.9 nM |

| Sequence | apparent KD of MS2 coat protein |
| --- | --- |
| GUGUUAUGGUCGGCCGCCACUCUGACAUGAGGAUCACCCAUGUUGUACAUGAGGAUCACCCAUGUGAGGACCGGGACACGUGCGA [Exclusion Tryptophan B GF10] | 203 nM |
| UAUCCACAUGAGGAUCACCCAUGUAGGGAAGGAGCGGUGAUUUCACCAGGUAGGUCGCCUUGCUCAGGGUUGCCGGUGGAAUCGU [Exclusion - Arginine A (Freestyle 34)] | 24.9 nM |
| GCCUAGCAGCGAAGGAGCGAGGUAAAUAAAUAAAUAAAUAACAAGAGGAUCACCCUUGUUCCUCAGGUAGGUCGCGCUGCUAGGC [SSAB Alternative Aptamer #1 NP+V+V2] | 16 nM |
| UUGUUGUUUGGAAGGAGCGUGGAUGAGUGAGAACAUGAGGAUCACCCAUGUUGUAUGAUACCGCAGGUAGGUCGCCGGGUGGUGG [11.aB] | 16.9 nM |
| GUACCACAGUCGGCCGCCACUAAGUUGUAUUCCAGCAGGACGAAACAUGAGGAUCACCCAUGUCCUAGGACCGGGACUUCCGUCG [theeternabot_sameState_MS2_Trp_B_41] | 16.9 nM |
| AAUGUAUGCCACAUGAGGAUCACCCAUGUGCGAGGACCGGUACGGCCGCCACUCGGUCGGUGGUUAAUGAAGAUAUACAAUAAUG [XTryp A #12] | 10.6 nM |
| CCUAACCGAUCGGCCGCCACUGACCGGUACCUCUUCGAAACCCGCCACAUGAGGAUCACCCAUGUCAGGACCGGGAUUGCACAGG [Inxeus] | 14.4 nM |
| UUUGCACAUGAGGAUCACCCAUGUACAGAUACCAGCCUCAUCUACGGCCCUUGGCAGCUGAGACAAUGGUGACAUGAUGGGCUUU [Istein] | 16 nM |
| GGGUGGUAGGCGGCCGCCACUGAUUUUCAUUCCUGGAUGACAUGAGGAUCACCCAUGUUUACGGGCAGGACCGGGCCUGCUGUGG [aaaW] | 34.8 nM |
| AUAAAUAUAACCGAUACCAGCCUUAUACAUGAGGAUCACCCAUGUUAUGCUUCCUUUCUUGGCCCUUGGCAGCGGAAAUGGGUAA [SSTheo B #13] | 36.2 nM |
| GAGGAUCAAGUAGAUACCAGCACAUGAGGAUCACCCAUGUAAUGGUGUCCCUCAAGAACGUGCCCUUGGCAGCUACUAUCAAAAU [Enarbeer] | 24.6 nM |
| ACAUGAGGAUCACCCAUGUCACGGCACGAUACCAGCUGAUGCGGUGGCCCUUGGCAGCGUGACGUUUGGUCCCGCGGAUGACGGG [zzmullin] | 36.6 nM |
| AUCGUACCUGAUGAUACCAGCAUGUGAUCGUAACAUGAGGAUCACCCAUGUGAUCAGUGAUGCCCUUGGCAGCAUGAUCGGUACA [Same State - Theophylline B (Freestyle 15)] | 36.6 nM |
| UGUAUGGACUGAAGGAGCGGGUAAUAAACCUGAGGAUCACCCAGGUAAUAGGCGAAAGCCACCCAGGUAGGUCGCAGUCCAUACU | 9.98 nM |
| UAUCGUCAGACGGCCGCCACUAGAACAUGAGGAUCACCCAUGUACUAGUGGCAUACCUCAUGAACUAGGACCGGGUCUGACGAAU [(Trp1)-(Ms2)-(T)'-(M)'-(Trp2)_Design10] | 10.2 nM |
| AAUAACAUGAGGAUCACCCAUGUAAAAGAUACCAGAGUGAUGAUCCUCCCUUGGCAGCUUAAAACGCUAUUGAUUACAAUAGCGA [Mat - Same State Theophlline A - Mod of Eli - D4] | 38.3 nM |
| UAUCCACAUGAGGAUCACCCAUGUUAGGAAGGAGCGGUGGAUGCACCAGGUAGGUCGCCUAGCUGAGGACUGUCGGUGGAUUCGU [Exclusion - Arginine A (Freestyle 21)] | 56.5 nM |
| AAGAACAUGAGGAUCACCCAUGUGAUCGUUCGAGGACCGGUACGGCCGCCACUCGGACCUGUGUCCAGGCACGGGCCGACGCGAC [theeternabot_sameState_MS2_Trp_A_21] | 74.8 nM |
